Assay results as given in patent US20040009571A1 (published 2004).
Numbering of substitutions follows the chain as printed. Names may count otherwise.

B1: wild type STAT1 N-domain (human STAT1 amino acid residues 1 to 124) (other, UniProt P42224 1-124, looked up)
chain: MSQWYELQQLDSKFLEQVHQLYDDSFPMEIRQYLAQWLEKQDWEHAANDVSFATIRFHDLLSQLDDQYSRFSLENNFLLQHNIRKSKRNLQDNFQEDPIQMSMIIYSCLKEERKILENAQRFNQ
notes: range 1-124; Expressed in E. coli as a GST fusion and released with TEV protease; also called N-domain of human STAT1
B2: STAT1 N-domain (Q41A) (other, human, UniProt P42224 1-124, looked up)
chain: B1 chain with Q41A
notes: range 1-124; Interface I mutant; GST fusion cleaved with TEV protease
B3: STAT1 N-domain (M28A) (other, human, UniProt P42224 1-124, looked up)
chain: B1 chain with M28A
notes: range 1-124; Interface II mutant; GST fusion cleaved with TEV protease
B4: STAT1 N-domain (Q8A) (other, human, UniProt P42224 1-124, looked up)
chain: B1 chain with Q8A
notes: as for B3
B5: STAT1 N-domain (Q36A) (other, human, UniProt P42224 1-124, looked up)
chain: B1 chain with Q36A
notes: as for B2
B6: STAT1 N-domain (L15A) (other, human, UniProt P42224 1-124, looked up)
chain: B1 chain with L15A
notes: as for B3
B7: STAT1 N-domain (L78A) (other, human, UniProt P42224 1-124, looked up)
chain: B1 chain with L78A
notes: range 1-124; Interface II mutant; GST fusion cleaved with TEV protease; Its CD spectrum was identical to wild type; also called STAT1 L78A
B8: STAT1 N-domain (F77A) (other, human, UniProt P42224 1-124, looked up)
chain: B1 chain with F77A
notes: range 1-124; Interface II mutant; GST fusion cleaved with TEV protease; Its CD spectrum was identical to wild type; also called STAT1 F77A
B9: STAT1 N-domain (R70A) (other, human, UniProt P42224 1-124, looked up)
chain: B1 chain with R70A
notes: as for B2
B10: STAT1 N-domain (E29A) (other, human, UniProt P42224 1-124, looked up)
chain: B1 chain with E29A
notes: as for B3
B11: STAT1 N-domain (W37F) (other, human, UniProt P42224 1-124, looked up)
chain: B1 chain with W37F
notes: range 1-124; Interface I mutant; GST fusion cleaved with TEV protease; also called N-domain of STAT1 (W37F)

What was measured:
[1] = target: STAT1 N-domain (S12A) (human) (UniProt P42224); assay: analytical ultracentrifugation, sedimentation equilibrium; self-association
[2] = target: the molecule itself; assay: analytical ultracentrifugation, sedimentation equilibrium; self-association (monomer 15,223 Da)
Method: (§1) As described below, point mutations in STAT1 were introduced at several sites at each of Interface I and II. The point mutation introduced in each of the STAT1 N-domain mutant proteins is indicated in the first column. The approximate molecular weight estimated by sedimentation equilibrium experiments, and migration as a monomer or dimer species on gel filtration analysis, is shown for each mutant protein.
(§2) For gel filtration analysis, 1.5 mg of purified STAT N domain protein in a volume of 500 μl was run on a 120 ml Superdex 75 column at a flow rate of 0.5 ml/min, in 50 mM Tris, pH 8.0, 100 mM NaCl and 1 mM DTT. Equilibrium sedimentation experiments were performed using a Beckman Optima XL-A analytical ultracentrifuge with an An-60 Ti rotor and six-sector cells. STAT N-domain proteins at concentrations of 0.65, 0.32 and 0.16 mg/ml were centrifuged in the gel filtration buffer, at 25,000 rev/min. at 4° C. for 20 h. Subsequently, absorbance measurements at 280 nm were taken in 0.001 cm radial steps and equilibrium was ascertained by comparing scans taken at 1 h intervals. The Optima XL-A/XL-I data analysis software from Beckman Coulter was used for data processing and curve fitting. A partial specific volume of 0.73 cm³/g was used and background absorbance was corrected empirically by allowing the baseline to float during the fitting calculations.

[3] = target: the molecule itself; assay: analytical ultracentrifugation, sedimentation equilibrium; self-association
Method: as §1, §2

[4] = target: the molecule itself; assay: analytical ultracentrifugation, sedimentation equilibrium (self-association)
Source text: Not only is Interface II more extensive than Interface I, it also involves interactions between hydrophobic residues (unlike the essentially polar nature of Interface I). Certain residues at interface II were individually replaced by Ala (Table 1) and the mutant STAT N-domains were examined for dimerization. […] The results for mutations at the other side of the interface provide evidence for interference with dimer formation. M28A migrated as an intermediate between dimer and monomer on gel filtration analysis, but appeared as a dimer by analytical ultracentrifugation analysis. […] The hydrophobic nature of the residues at positions 77 and 78 is conserved between STAT1 and STAT4, which has leucine residues at both positions. Likewise, Met 28 is conserved in STAT4.
For gel filtration analysis, 1.5 mg of purified STAT N domain protein in a volume of 500 μl was run on a 120 ml Superdex 75 column at a flow rate of 0.5 ml/min, in 50 mM Tris, pH 8.0, 100 mM NaCl and 1 mM DTT. […] Subsequently, absorbance measurements at 280 nm were taken in 0.001 cm radial steps and equilibrium was ascertained by comparing scans taken at 1 h intervals. […] A partial specific volume of 0.73 cm³/g was used and background absorbance was corrected empirically by allowing the baseline to float during the fitting calculations.

[5] = target: the molecule itself; assay: gel filtration on Superdex 75 (self-association)
Method: as §2

| Molecule | molecular weight by sedimentation equilibrium [3] | also measured |
| --- | --- | --- |
| STAT1 N-domain (S12A) (from UniProt P42224 1-124) |  | molecular weight by sedimentation equilibrium [1]: 17 kDa |
| B1 |  | molecular weight by sedimentation equilibrium [2]: ~28 kDa |
| B2 | ~27 kDa |  |
| B3 | ~26 kDa |  |
| B4 | ~27 kDa |  |
| B5 | ~29 kDa |  |
| B6 | ~28 kDa |  |
| B7 |  | binding result [4]: no binding (tested: 0.65, 0.32 and 0.16 mg/ml); molecular weight by sedimentation equilibrium [2]: ~15 kDa |
| B8 |  | binding result [5]: no binding (tested: 1.5 mg in 500 µl); molecular weight by sedimentation equilibrium [2]: ~15 kDa |
| B9 | ~27 kDa |  |
| B10 | ~27 kDa |  |
| B11 | ~28 kDa |  |
